Publication PMC9287160

Target: αMβ2 expressed on K562 cells (human) (UniProt P11215)
Test: flow cytometry on cells; αMβ2/K562 cells, 45 min with 10 μg/ml Alexa Fluor 488-iC3b and 0, 1, 5 or 10 μg/ml hCD11bNb1; 1 mM Ca2+ and 1 mM Mg2+, with or without 1 mM Mn2+

fold increase of iC3b* binding in the presence of hCD11bNb1 against none: 2 fold
Substance: Alexa Fluor 488-conjugated iC3b (from UniProt P01024 23-667; P01024 1321-1663) (ligand)
